From patent US20110118131A1 (published 2011)

T1: Ep-CAM (UniProt P16422 24-265, limits assumed)
T1 construct: Amine coupled to a CM5 chip in the Biacore assays
T1 sequence (looked up): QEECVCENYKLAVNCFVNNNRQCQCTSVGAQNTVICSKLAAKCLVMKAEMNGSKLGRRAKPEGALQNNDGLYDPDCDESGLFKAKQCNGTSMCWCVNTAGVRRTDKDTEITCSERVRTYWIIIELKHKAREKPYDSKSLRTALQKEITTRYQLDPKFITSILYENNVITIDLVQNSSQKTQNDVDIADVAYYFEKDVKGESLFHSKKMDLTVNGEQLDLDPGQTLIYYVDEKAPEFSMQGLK


Molecular target: T1, Ep-CAM
Assay: Biacore, Fab periplasmic extract

| fold difference in affinity vs parental ING-1 [fold] | binding result | Binder |
| --- | --- | --- |
| 0.05 | – | ING-1 light chain P100N (Fab, V domains shown, Fab, periplasmic extract) VH: QIQLVQSGPELKKPGETVKISCKASGYTFTKYGMNWVKQAPGKGLKWMGWINTYTEEPTYGDDFKGRFAFSLETSASTANLQINNLKSEDTATYFCARFGSAVDYWGQGTSVTVSS VL: DIVMTQAAFSNPVTLGTSGSISCRSSKSLLHSNGITYLYWYLQKPGQSPQLLIYQMSNLASGVPDRFSSSGSGTDFTLRISRVEAEDVGVYYCAQNLELNRTFGGGTKLEMKR |
| – | no binding | ING-1 light chain R101E (Fab, V domains shown, Fab, periplasmic extract) VH: QIQLVQSGPELKKPGETVKISCKASGYTFTKYGMNWVKQAPGKGLKWMGWINTYTEEPTYGDDFKGRFAFSLETSASTANLQINNLKSEDTATYFCARFGSAVDYWGQGTSVTVSS VL: DIVMTQAAFSNPVTLGTSGSISCRSSKSLLHSNGITYLYWYLQKPGQSPQLLIYQMSNLASGVPDRFSSSGSGTDFTLRISRVEAEDVGVYYCAQNLELPETFGGGTKLEMKR |
| 0.05 | – | ING-1 light chain Q55E (Fab, V domains shown, Fab, periplasmic extract) VH: QIQLVQSGPELKKPGETVKISCKASGYTFTKYGMNWVKQAPGKGLKWMGWINTYTEEPTYGDDFKGRFAFSLETSASTANLQINNLKSEDTATYFCARFGSAVDYWGQGTSVTVSS VL: DIVMTQAAFSNPVTLGTSGSISCRSSKSLLHSNGITYLYWYLQKPGQSPQLLIYEMSNLASGVPDRFSSSGSGTDFTLRISRVEAEDVGVYYCAQNLELPRTFGGGTKLEMKR |
| 0.05 | – | ING-1 light chain P100R (Fab, V domains shown, Fab, periplasmic extract) VH: QIQLVQSGPELKKPGETVKISCKASGYTFTKYGMNWVKQAPGKGLKWMGWINTYTEEPTYGDDFKGRFAFSLETSASTANLQINNLKSEDTATYFCARFGSAVDYWGQGTSVTVSS VL: DIVMTQAAFSNPVTLGTSGSISCRSSKSLLHSNGITYLYWYLQKPGQSPQLLIYQMSNLASGVPDRFSSSGSGTDFTLRISRVEAEDVGVYYCAQNLELRRTFGGGTKLEMKR |
| – | no binding | ING-1 light chain R101D (Fab, V domains shown, Fab, periplasmic extract) VH: QIQLVQSGPELKKPGETVKISCKASGYTFTKYGMNWVKQAPGKGLKWMGWINTYTEEPTYGDDFKGRFAFSLETSASTANLQINNLKSEDTATYFCARFGSAVDYWGQGTSVTVSS VL: DIVMTQAAFSNPVTLGTSGSISCRSSKSLLHSNGITYLYWYLQKPGQSPQLLIYQMSNLASGVPDRFSSSGSGTDFTLRISRVEAEDVGVYYCAQNLELPDTFGGGTKLEMKR |
| 0.06 | – | ING-1 light chain P100S (Fab, V domains shown, Fab, periplasmic extract) VH: QIQLVQSGPELKKPGETVKISCKASGYTFTKYGMNWVKQAPGKGLKWMGWINTYTEEPTYGDDFKGRFAFSLETSASTANLQINNLKSEDTATYFCARFGSAVDYWGQGTSVTVSS VL: DIVMTQAAFSNPVTLGTSGSISCRSSKSLLHSNGITYLYWYLQKPGQSPQLLIYQMSNLASGVPDRFSSSGSGTDFTLRISRVEAEDVGVYYCAQNLELSRTFGGGTKLEMKR |
| 0.05 | – | ING-1 light chain Q55D (Fab, V domains shown, Fab, periplasmic extract) VH: QIQLVQSGPELKKPGETVKISCKASGYTFTKYGMNWVKQAPGKGLKWMGWINTYTEEPTYGDDFKGRFAFSLETSASTANLQINNLKSEDTATYFCARFGSAVDYWGQGTSVTVSS VL: DIVMTQAAFSNPVTLGTSGSISCRSSKSLLHSNGITYLYWYLQKPGQSPQLLIYDMSNLASGVPDRFSSSGSGTDFTLRISRVEAEDVGVYYCAQNLELPRTFGGGTKLEMKR |
| 0.04 | – | ING-1 light chain P100Q (Fab, V domains shown, Fab, periplasmic extract) VH: QIQLVQSGPELKKPGETVKISCKASGYTFTKYGMNWVKQAPGKGLKWMGWINTYTEEPTYGDDFKGRFAFSLETSASTANLQINNLKSEDTATYFCARFGSAVDYWGQGTSVTVSS VL: DIVMTQAAFSNPVTLGTSGSISCRSSKSLLHSNGITYLYWYLQKPGQSPQLLIYQMSNLASGVPDRFSSSGSGTDFTLRISRVEAEDVGVYYCAQNLELQRTFGGGTKLEMKR |
